Results: patent US20180215825A1 (BEIGENE, published 2018)
Where two headings read alike, the source gives them in different places.

B1: hu333-3A2 Fab (Fab, V domains shown)
VH: EVQLVESGGGLVQPGGSLRLSCAVSGFSLTSYGVHWVRQAPGKGLEWVAVIWAGGSTNYVDSVKGRLTISKDNAKNTVYLQMNSLRAEDTAVYYCAKPYGNSAMDYWGQGTLVTVSS
VL: DIQMTQSPSSLSASVGDRVTITCKASQDVGIVVAWYQQKPGKAPKLLIYWASIRHTGVPSRFSGSGSGTEFTLTISSLQPDDFATYYCQQYSNYPLYTFGQGTKVEIK
notes: Human Fab format; constant parts not restated
B2: hu333-3H2 Fab (Fab, V domains shown)
VH: EVQLVESGGGLVQPGGSLRLSCAVSGFSLTSYGVHWVRQAPGKGLEWVAVIWAGGSTNYADSVKGRFTISKDTSKNTVYLQMNSLRAEDTAVYYCAKPYGNSAMDYWGQGTLVTVSS
VL: DIQMTQSPSSLSASVGDRVTITCKASQDVGIVVAWYQQKPGKAPKLLIYWASIRHTGVPSRFSGSGSGTEFTLTISSLQPDDFATYYCQQYSNYPLYTFGQGTKVEIK
notes: as for B1
B3: hu333-4A2 Fab (Fab, V domains shown)
VH: EVQLVESGGGLVQPGGSLRLSCAVSGFSLTSYGVHWVRQAPGKGLEWVAVIWAGGSTNYVDSVKGRFTISKDNAKNTVYLQMNSLRAEDTAVYYCAKPYGTSAMDYWGQGTLVTVSS
VL: DIQMTQSPSSLSASVGDRVTITCKASQDVGIVVAWYQQKPGKAPKLLIYWASIRHTGVPSRFSGSGSGTEFTLTISSLQPDDFATYYCQQYSNYPLYTFGQGTKVEIK
notes: Human IgG1 Fab format: Vh fused to human IgG1-CH1 with C-terminal His6 tag, Vk fused to the constant region of kappa chain
B4: hu333-4B2 Fab (Fab, V domains shown)
VH: EVQLVESGGGLVQPGGSLRLSCAVSGFSLTSYGVHWVRQAPGKGLEWVAVIWAGGSTNYADSVKGRFTISKDTSKNTVYLQMNSLRAEDTAVYYCAKPYGTSAMDYWGQGTLVTVSS
VL: DIQMTQSPSSLSASVGDRVTITCKASQDVGIVVAWYQQKPGKAPKLLIYWASIRHTGVPSRFSGSGSGTEFTLTISSLQPDDFATYYCQQYSNYPLYTFGQGTKVEIK
notes: as for B3

Key:
[1] = biological target: T1, human PD-L1, full length, expressed on cells (human, UniProt Q9NZQ7 19-290); test: cell-based or functional assay
human PD-L1-ECD/His [2] = biological target: T2, human PD-L1-ECD/His (human, UniProt Q9NZQ7 19-238); test: SPR (BIAcore T-200), human PD-L1/His on CM5 chip, Fab injected
T2 construct: Expressed in 293-F cells; also called PD-L1/His; human PD-L1/His
Method: (§1) For affinity determinations of anti-PD-L1 Fabs, SPR assays were performed using BIAcore™ T-200 (GE Life Sciences). Briefly, human PD-L1/His was coupled to an activated CM5 biosensor chip (Cat. No. BR100530, GE Life Sciences) to achieve approximately 100-200 response units (RU), followed by blocking un-reacted groups with 1M ethanolamine. A serial dilutions of 0.12 nM to 90 nM Fab samples were injected, mixed into the SPR running buffer (10 mM HEPES, 150 mM NaCl, 0.05% Tween20, pH7.4) at 30 μL/minute, and binding responses on human PD-L1/His were calculated by substracting of RU from a blank flow-cell. Association rates (kₒₙ) and dissociation rates (koff) were calculated using the one-to-one Langmuir binding model (BIA Evaluation Software, GE Life Sciences). The equilibrium dissociation constant (Kd) was calculated as the ratio koff/kₒₙ.
(§2) For affinity determinations of anti-PD-L1 Fabs, SPR assays were conducted using BIAcore™ T-200 instrument (GE Life Sciences, Shanghai, China) as described earlier. Association rates (kₒₙ) and dissociation rates (koff) were calculated using the one-to-one Langmuir binding model (BIA Evaluation Software, GE Life Sciences). The equilibrium dissociation constant (Kd) was calculated as the ratio koff/kₒₙ.

[3] = biological target: T1, human PD-L1, full length, expressed on …; test: FACS competition with biotin-CD80/Fc on HEK293/PD-L1 cells
[4] = biological target: T1, human PD-L1, full length, expressed on …; test: FACS competition with biotin-PD-1/Fc on HEK293/PD-L1 cells
[5] = biological target: T1, human PD-L1, full length, expressed on …; test: FACS competition with biotin-CD80/Fc on HEK293/PD-L1 cells; remark: listed apart in the source
[6] = biological target: T3, cynomolgus monkey PD-L1/His (cynomolgus monkey (Macaca fascicularis), UniProt G7PSE7 19-238); test: SPR (BIAcore T-200), monkey PD-L1, Fab injected
T3 construct: extracellular domain; Said to be expressed and purified in a similar way to the human PD-L1/His (PD-L1-ECD/His); not shown: His tag

[7] = biological target: T1, human PD-L1, full length, expressed on …; test: FACS competition with biotin-PD-1/Fc on HEK293/PD-L1 cells; remark: listed apart in the source
[8] = biological target: T1, human PD-L1, full length, expressed on …; test: cell-based or functional assay; remark: listed apart in the source
human PD-L1-ECD/His [9] = biological target: T2, human PD-L1-ECD/His; test: SPR (BIAcore T-200), human PD-L1, Fab injected
Method: as §1, §2

T3 sequence (G7PSE7 entry or part of it): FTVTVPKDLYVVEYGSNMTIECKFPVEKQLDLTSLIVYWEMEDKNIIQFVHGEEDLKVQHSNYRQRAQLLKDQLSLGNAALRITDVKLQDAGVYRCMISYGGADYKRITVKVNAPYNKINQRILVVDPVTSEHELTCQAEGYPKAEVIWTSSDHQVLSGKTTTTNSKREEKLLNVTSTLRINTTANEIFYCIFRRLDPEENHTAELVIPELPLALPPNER
T1 sequence (Q9NZQ7 19-290 limits assumed): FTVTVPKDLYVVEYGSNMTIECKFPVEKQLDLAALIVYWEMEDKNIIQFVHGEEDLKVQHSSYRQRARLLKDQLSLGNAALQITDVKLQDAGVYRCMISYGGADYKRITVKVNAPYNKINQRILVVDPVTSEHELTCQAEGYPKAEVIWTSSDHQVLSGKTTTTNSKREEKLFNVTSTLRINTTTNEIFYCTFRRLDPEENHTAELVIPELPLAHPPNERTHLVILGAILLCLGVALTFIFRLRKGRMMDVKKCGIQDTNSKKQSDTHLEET
T2 sequence (Q9NZQ7 19-238): as the sequence (G7PSE7 entry or part of it) above, with T33A, S34A, N62S, Q68R, R82Q, L173F, A185T, I192T, L215H counted along it

Binder	IL-2 release in HuT78/P3Z: IC50 [1] [µg/mL]	IL-2 release in HuT78/P3Z: Max inhibition [1] [%]	IL-2 release in HuT78/PD-1: EC50 [1] [µg/mL]	IL-2 release in HuT78/PD-1: Top line [1] [pg/mL]	Kd (human PD-L1-ECD/His [2]) [pM]	koff (human PD-L1-ECD/His [2]) [s⁻¹]	kon (human PD-L1-ECD/His [2]) [M⁻¹ s⁻¹]	IC50 [3] [µg/mL]	Max inhibition [3] [%]	IC50 [4] [µg/mL]	Max inhibition [4] [%]	IC50 [5] [µg/mL]	Kd [6] [pM]	koff [6] [s⁻¹]	kon [6] [M⁻¹ s⁻¹]	IC50 [7] [µg/mL]	IL-2 release in HuT78/P3Z: IC50 [8] [µg/mL]	IL-2 release in HuT78/PD-1: EC50 [8] [µg/mL]	Kd (human PD-L1-ECD/His [9]) [pM]	koff (human PD-L1-ECD/His [9]) [s⁻¹]	further results
B1	0.014	95	0.057	2550	0.17	2.2e-07	1.28e+06	0.044	99	0.068	100	–	–	–	–	–	–	–	–	–	–
B2	0.014	100	0.057	3020	34.9	4.61e-05	1.32e+06	0.064	99	0.071	100	–	–	–	–	–	–	–	–	–	–
B3	–	–	–	–	2.65	1.03e-05	3.88e+06	–	–	–	–	0.045	2.91	9.3e-06	3.19e+06	0.05	0.005	0.05	2.65	1.03e-05	kon (human PD-L1-ECD/His [9]): 3.88e+06 M⁻¹ s⁻¹
B4	–	–	–	–	3.5	1.32e-05	3.78e+06	–	–	–	–	0.062	2.5	8e-06	3.2e+06	0.053	0.016	0.058	3.5	1.32e-05	kon (human PD-L1-ECD/His [9]): 3.78e+06 M⁻¹ s⁻¹
